Data published in PMC10591846.
pIC50: −log10 of the molar value.

Biological target: GST-Pirh2 (construct of Figures S5 and S12 not stated) (human) (UniProt Q96PM5)
Assay: AlphaScreen or HTRF

Chain of GST-Pirh2 (construct of Figures S5 and S12 not stated) (human) (Q96PM5 whole entry): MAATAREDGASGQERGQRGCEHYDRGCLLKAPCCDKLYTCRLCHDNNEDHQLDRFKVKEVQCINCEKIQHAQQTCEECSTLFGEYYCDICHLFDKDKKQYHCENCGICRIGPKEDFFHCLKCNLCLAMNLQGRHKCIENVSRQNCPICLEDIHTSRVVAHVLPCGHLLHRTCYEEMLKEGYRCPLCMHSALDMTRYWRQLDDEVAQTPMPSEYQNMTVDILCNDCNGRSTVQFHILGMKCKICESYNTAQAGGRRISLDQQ

Substance: B. subtilis SsrA tag (peptide)
- pIC50: 6.33
